These results are taken from paper PMC4374139.

Assay [1] addresses TopBP1 (UniProt Q92547). Nature of the assay: GFP-BLM pull-down, western blot. To be noted: reference: wild type; sites S304.
For assay [2], the target named is TopBP1 (UniProt Q92547). Nature of the assay: GFP-BLM pull-down, western blot. Conditions: reference: wild type; sites S304. This is another data set of the same source.
Assay [3] concerns the target TopBP1 (UniProt Q92547). Briefly: GFP-BLM pull-down, western blot. Conditions: reference: wild type; sites S304. The source holds these as a separate data set.
For assay [4], the target named is TopBP1 BRCT5 (UniProt Q92547). Nature of the assay: GST-BRCT5 pull-down of SFB-BLM from lysate. To be noted: reference: wild type; sites S304.
Assay [5] addresses TopBP1 BRCT domains 4 and 5 (UniProt Q92547). Briefly: biotin-peptide pull-down of purified GST-BRCT4-5. To be noted: reference: nonphosphorylated peptide; sites S304.
For assay [6], the target named is TopBP1 (UniProt Q92547). Briefly: biotin-peptide streptavidin pull-down from nuclear extract. To be noted: reference: nonphosphorylated peptide; sites S304.
Assay [7] deals with TopBP1 BRCT5 (UniProt Q92547). Briefly: biotin-peptide (Ser304) pull-down of purified GST-BRCT5. To be noted: reference: nonphosphorylated Ser304 peptide; sites S304.

On to BLM (from UniProt P54132) S304A, for which the “binding against the reference” value in the assay with TopBP1 [1] is on record as “lost”; with TopBP1 [2], “weaker”; with TopBP1 [3] it was “weaker”; in the assay with TopBP1 BRCT5 [4], “weaker”.

For the substance “BLM 297-311 (from UniProt P54132) pS304 peptide”, the “binding against the reference” value (in assay [5]; in the assay with TopBP1 [6]) was “gained” in each case.

Regarding BLM (from UniProt P54132) pS304 peptide, in the assay with TopBP1 BRCT5 [7], the “binding against the reference” value was “gained”.
